Results published in article PMC2936784 (Science (New York, N.Y.), 2009).

Target: PTEN, purified from HEK293 cells (UniProt P60484 1-403)
Experiment: enzyme inhibition kinetics

Sequence of PTEN, purified from HEK293 cells (P60484 whole entry): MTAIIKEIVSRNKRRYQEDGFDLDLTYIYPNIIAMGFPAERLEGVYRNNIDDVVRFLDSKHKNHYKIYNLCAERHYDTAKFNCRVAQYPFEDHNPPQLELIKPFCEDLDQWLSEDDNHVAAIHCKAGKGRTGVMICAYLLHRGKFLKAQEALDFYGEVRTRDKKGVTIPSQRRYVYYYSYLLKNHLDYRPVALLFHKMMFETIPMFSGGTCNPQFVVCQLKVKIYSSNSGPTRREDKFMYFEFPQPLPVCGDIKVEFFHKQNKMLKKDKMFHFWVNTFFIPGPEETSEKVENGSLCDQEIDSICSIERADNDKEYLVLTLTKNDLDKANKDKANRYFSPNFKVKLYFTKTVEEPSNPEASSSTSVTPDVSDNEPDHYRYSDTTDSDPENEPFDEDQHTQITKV

Ki: 19 nM
B1: Affinity purified full-length P-REX2a (natural protein, UniProt Q70Z35 1-1606, looked up)
chain: MSEDSRGDSRAESAKDLEKQLRLRVCVLSELQKTERDYVGTLEFLVSAFLHRMNQCAASKVDKNVTEETVKMLFSNIEDILAVHKEFLKVVEECLHPEPNAQQEVGTCFLHFKDKFRIYDEYCSNHEKAQKLLLELNKIRTIRTFLLNCMLLGGRKNTDVPLEGYLVTPIQRICKYPLILKELLKRTPRKHSDYAAVMEALQAMKAVCSNINEAKRQMEKLEVLEEWQSHIEGWEGSNITDTCTEMLMCGVLLKISSGNIQERVFFLFDNLLVYCKRKHRRLKNSKASTDGHRYLFRGRINTEVMEVENVDDGTADFHSSGHIVVNGWKIHNTAKNKWFVCMAKTPEEKHEWFEAILKERERRKGLKLGMEQDTWVMISEQGEKLYKMMCRQGNLIKDRKRKLTTFPKCFLGSEFVSWLLEIGEIHRPEEGVHLGQALLENGIIHHVTDKHQFKPEQMLYRFRYDDGTFYPRNEMQDVISKGVRLYCRLHSLFTPVIRDKDYHLRTYKSVVMANKLIDWLIAQGDCRTREEAMIFGVGLCDNGFMHHVLEKSEFKDEPLLFRFFSDEEMEGSNMKHRLMKHDLKVVENVIAKSLLIKSNEGSYGFGLEDKNKVPIIKLVEKGSNAEMAGMEVGKKIFAINGDLVFMRPFNEVDCFLKSCLNSRKPLRVLVSTKPRETVKIPDSADGLGFQIRGFGPSVVHAVGRGTVAAAAGLHPGQCIIKVNGINVSKETHASVIAHVTACRKYRRPTKQDSIQWVYNSIESAQEDLQKSHSKPPGDEAGDAFDCKVEEVIDKFNTMAIIDGKKEHVSLTVDNVHLEYGVVYEYDSTAGIKCNVVEKMIEPKGFFSLTAKILEALAKSDEHFVQNCTSLNSLNEVIPTDLQSKFSALCSERIEHLCQRISSYKKFSRVLKNRAWPTFKQAKSKISPLHSSDFCPTNCHVNVMEVSYPKTSTSLGSAFGVQLDSRKHNSHDKENKSSEQGKLSPMVYIQHTITTMAAPSGLSLGQQDGHGLRYLLKEEDLETQDIYQKLLGKLQTALKEVEMCVCQIDDLLSSITYSPKLERKTSEGIIPTDSDNEKGERNSKRVCFNVAGDEQEDSGHDTISNRDSYSDCNSNRNSIASFTSICSSQCSSYFHSDEMDSGDELPLSVRISHDKQDKIHSCLEHLFSQVDSITNLLKGQAVVRAFDQTKYLTPGRGLQEFQQEMEPKLSCPKRLRLHIKQDPWNLPSSVRTLAQNIRKFVEEVKCRLLLALLEYSDSETQLRRDMVFCQTLVATVCAFSEQLMAALNQMFDNSKENEMETWEASRRWLDQIANAGVLFHFQSLLSPNLTDEQAMLEDTLVALFDLEKVSFYFKPSEEEPLVANVPLTYQAEGSRQALKVYFYIDSYHFEQLPQRLKNGGGFKIHPVLFAQALESMEGYYYRDNVSVEEFQAQINAASLEKVKQYNQKLRAFYLDKSNSPPNSTSKAAYVDKLMRPLNALDELYRLVASFIRSKRTAACANTACSASGVGLLSVSSELCNRLGACHIIMCSSGVHRCTLSVTLEQAIILARSHGLPPRYIMQATDVMRKQGARVQNTAKNLGVRDRTPQSAPRLYKLCEPPPPAGEE
